Results reported in the supplement of paper PMC10567573.
± gives the standard deviation.

Assay: protein stability index of a GFP-peptide fusion (GPS, HEK-293T) (PSI 1-6); higher = more stable
[1] = treatment: DMSO, c terminus: a fixed tail appended
[2] = treatment: MLN4924 1 uM, 8 h, c terminus: a fixed tail appended
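Further: 24-mer peptide tiles fused after GFP, lentivirally expressed, FACS-sorted into six equal bins by GFP/DsRed ratio, decoded by Illumina sequencing, PSI is the read-weighted mean bin number.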

Sequence | protein stability index [1] | protein stability index [2] | protein stability index (treatment: DMSO, c terminus: native) | protein stability index (treatment: MLN4924 1 uM, 8 h, c terminus: native)
SPFSGSLHAPPAFYSTSSGLANGL [VENTX] | 2.89 ± 0.048 | 2.96 ± 0.17 | – | –
RGPDNALLEATGGAAGRSHHLDED [KCTD10] | 5.54 ± 0.26 | 5.42 ± 0.25 | – | –
DLDPLELIALANRFCLPHLVALAE [RHOBTB1] | 2.5 ± 0.11 | 2.14 ± 0.2 | – | –
TPGDCPPGRRDEDAGEGIQCSQRM [TMEM175] | 5.15 ± 0.37 | 5.25 ± 0.18 | – | –
TFGFITMTPQLFINYKLKSVAHLP [CLPTM1] | 2.59 ± 0.47 | 2.92 ± 0.86 | – | –
RGRFTTYEIRVKTNLPIFKLKEST [SNX3] | 2.54 ± 0.98 | 2.47 ± 0.57 | – | –
FPAMLFSSMLTGILWDTLLRLCAW [POMT2] | 3.23 ± 0.51 | 3.09 ± 0.12 | – | –
VEVDENAYRCGSGMQMAEDSKSLK [NET1] | 4.98 ± 0.26 | 4.99 ± 0.31 | – | –
TAGQERYRAITSAYYRGAVGALLV [RAB11A] | 2.22 ± 0.24 | 2.19 ± 0.24 | – | –
MASSAAGCVVIVGSGVIGRSWAML [CRYL1] | 3.7 ± 0.13 | 2.89 ± 1.8 | – | –
PPRKSGSFHSSGEKQKQPRWREGT [PBXIP1] | 4.4 ± 0.068 | 4.38 ± 0.3 | – | –
REIMEKFGKQPVSLPARRLKLRGR [CPXM2] | 3.64 ± 0.16 | 3.65 ± 0.088 | – | –
ETSVVAQFGIKDVFDNAIRAALIS [RHOBTB2] | 2.28 ± 0.19 | 2.38 ± 0.38 | – | –
NFVYNSPRGYFHTFAGDTCQVALN [WASL] | 2.24 ± 0.44 | 2.27 ± 0.64 | – | –
FSEETEKKFEHFSGLLNNQLSPQ [LOXL2] | – | – | 3.57 ± 0.72 | 4.61 ± 0.37
ILGRGLQEYQLPYQRVLPLPIFTP [TCAP] | 2.25 ± 0.21 | 2.37 ± 0.12 | – | –
ERTRKPYNNDIDYYAKRNALRAAE [GALNT9] | 4.1 ± 0.13 | 4.26 ± 0.24 | – | –
TGILLHPWLRQDPMPLAPTRSHLW [TRIB3] | 2.11 ± 0.25 | 2.18 ± 0.089 | – | –
QLYMEQFTKANFWYQPSFHGVDLS [CARM1] | 2.42 ± 0.71 | 2.48 ± 0.31 | – | –
FKLLDKNSSGDIGKKEIKPFKRFL [SMOC2] | 2.54 ± 0.42 | 3.01 ± 0.43 | – | –
AFDYIKQRRSMVSPNFGFMGQLLQ [DUSP5] | 2.14 ± 0.25 | 2.27 ± 0.39 | – | –
KCLQGNADGDGGGGQCCRRQDSPS [PCDHGC5] | 5.25 ± 0.29 | 5.21 ± 0.1 | – | –
NRLMLAVRDMMANFHLNDLEAPHE [TCF25] | 2.5 ± 0.42 | 2.42 ± 0.24 | – | –

Sequence | protein stability index [1] | protein stability index [2] | protein stability index (treatment: DMSO, c terminus: native) | protein stability index (treatment: MLN4924 1 uM, 8 h, c terminus: native)
MEEFRRSYSRLCRESGAEPQEAVL [LRRC45] | 3.77 ± 0.22 | 3.84 ± 0.27 | – | –
SSKSRAAPSPQEALVRLRETEEML [CHMP4C] | 2.79 ± 0.58 | 3.45 ± 0.81 | – | –
SSPQGKSGPEAARAGGWVSGEEFY [PKD2L1] | 4.51 ± 0.2 | 4.54 ± 0.17 | – | –
RKQRRRERWLQKQGKYSGVGLLDH [RNF180] | 3.43 ± 0.26 | 3.94 ± 0.33 | – | –
DSMTSQAKPEALSSPKFREEAAFP [ELOA2] | 4.9 ± 0.24 | 4.89 ± 0.13 | – | –
YSCPATNECEITKRRRKSCQACRF [ESRRG] | 3.59 ± 0.51 | 4.15 ± 0.29 | – | –
EVKPKDIIHVVKDQLIGQGIIVKD [TENT5D] | 3.52 ± 0.066 | 3.73 ± 0.25 | – | –
EFLPQGPVAMRVAKLAINQGMEVD [AUH] | – | 3.82 ± 0.18 | – | –
FCPLSLWRWQLYAAQSTKSPWNFL [CLPTM1] | 2.66 ± 0.62 | 2.9 ± 0.51 | – | –
ASGSVLRLVDAVLGAEIRNGMAII [HDAC6] | 2.91 ± 0.56 | 2.55 ± 0.58 | – | –
GASLYAISNVCEEYIVKKLSRQEF [SLC35F2] | 2.3 ± 0.27 | 2.45 ± 0.43 | – | –
HSRVAKPHQREKIDKEIELHRILH [PLK2] | 3.42 ± 0.4 | 3.44 ± 0.07 | – | –
SEDVNWGYEKRNLARVPKLDLKRQ [CHGB] | 4.34 ± 0.3 | 4.27 ± 0.25 | – | –
GVCQSMCHDKYTKIFNDFKDRMKS [ZMYND11] | 3.11 ± 0.032 | 2.92 ± 0.23 | – | –
VKILEPKTKEVQHNCQLHRISFCA [GULP1] | 2.33 ± 0.22 | 2.25 ± 0.17 | – | –
NRQTFVNSAIRFLRKYSFDGLDLD [CHIT1] | 1.99 ± 0.27 | 2.48 ± 0.22 | – | –
LKRKNKQAFLDELESSDLPVALLL [MNAT1] | 2.2 ± 0.42 | 2 ± 0.3 | – | –
YLATEYLETHFRDVSSTEEFLELS [GAN] | 3.13 ± 0.29 | 3.2 ± 0.35 | – | –
PKEQLSTSFQWVTKWVDYSNKYGF [PLK2] | 2.29 ± 0.45 | 2.46 ± 0.48 | – | –
IRLCDMRASALCDRHTKFFEEPED [PPP2R2B] | 3.59 ± 0.11 | 3.77 ± 0.2 | – | –
YLAFAASNVRGSLNVNLNSVVLRR [DUSP5] | 2.41 ± 0.24 | 2.69 ± 0.24 | – | –
LTASGDGTCALWDVESGQLLQSFH [GNB5] | 2.67 ± 0.36 | 2.76 ± 0.24 | – | –
PLSSDIQVITQTGVPGQPLNFKAE [PTPRD] | 4.66 ± 0.17 | 4.51 ± 0.26 | – | –

Sequence | protein stability index [1] | protein stability index [2] | protein stability index (treatment: DMSO, c terminus: native) | protein stability index (treatment: MLN4924 1 uM, 8 h, c terminus: native)
GPRVGEALVSHPEVPLISFTGSQP [ALDH8A1] | 3.77 ± 0.34 | 4.09 ± 0.31 | – | –
LTCDALTELLAKITNTDVDCLKAC [CCND2] | 2.37 ± 0.28 | 2.34 ± 0.27 | – | –
KSALGAMGQWQLEVGDPAPLGAGN [DPCD] | 3.98 ± 0.21 | 3.96 ± 0.27 | – | –
SSSASYGGGFGGGSCQLGGGRGVS [KRT13] | 3.71 ± 0.65 | 3.94 ± 0.36 | – | –
SNSQPTNESHSIKAILKNISVLAF [SLC29A1] | 2.45 ± 0.46 | 2.43 ± 0.29 | – | –
AEEAESHFSSIPDAFWWAVVSMTT [KCNA1] | 2.11 ± 0.31 | 2.1 ± 0.24 | – | –
GGQDGLGAPKDQQQPPQQQPSQQQ [KLHL14] | 5.36 ± 0.5 | 5.4 ± 0.56 | – | –
MTTTFLQTSSSTFGGGSTRGGSLL [KRT15] | 2.8 ± 0.35 | 2.97 ± 0.46 | – | –
RGTHAVVGVATADAPLHSVGYTTL [SPSB1] | 2.73 ± 0.26 | 2.88 ± 0.14 | – | –
QWTVGKLNCPFCGARLGGFNFVST [RNF180] | 2.46 ± 0.39 | 2.65 ± 0.54 | – | –
KRRVALSPVTENSTSLSFLDSCNS [MYBL2] | 3.65 ± 0.2 | 3.92 ± 0.34 | – | –
WAPASEGLKPGPEDGPGKEEAPEL [SERTAD1] | 5.5 ± 0.2 | 5.46 ± 0.41 | – | –
IGVILFSSAVYFAEADEPTTHFQS [KCNA4] | 2.36 ± 0.58 | 2.69 ± 1 | – | –
SSEAFHNYMNAAMVHINRALKLII [RTN3] | 2.62 ± 0.46 | 2.06 ± 0.38 | – | –
VLEGPAPWGFRLQGGKDFNVPLSI [PDLIM7] | 2.31 ± 0.12 | 2.44 ± 0.17 | – | –
HVLEGLFRTDPEAKVKLVFVEDQA [ZSWIM9] | 2.51 ± 0.19 | 2.74 ± 0.24 | – | –
LYAKMIQKLADLRSLNEEHSKQYR [VDR] | 2.15 ± 0.41 | 2.19 ± 0.22 | – | –
GAFDSFLLRFGVPSPSTLEPHPRP [TNXB] | 2.99 ± 0.42 | 2.97 ± 0.35 | – | –
KTSLAPYVKVFEHFLENLDKSRKG [PRIM1] | 2.54 ± 0.39 | 3.12 ± 0.46 | – | –
TLAALLLNRSESDIRYLLGYVSQQ [FEM1B] | 2.39 ± 0.42 | 2.52 ± 0.61 | – | –
RHRIPEPEAAVLFRQMATALAHCH [TRIB3] | 2.48 ± 0.084 | 2.29 ± 0.19 | – | –
QAIDHGCEHICVNSDDSYTCECLE [MATN2] | 5.43 ± 0.098 | 5.14 ± 0.28 | – | –
TEYIESPDVENEVKRLLRSDAEAV [TAF7L] | 4.97 ± 0.33 | 5.03 ± 0.22 | – | –

Sequence | protein stability index [1] | protein stability index [2] | protein stability index (treatment: DMSO, c terminus: native) | protein stability index (treatment: MLN4924 1 uM, 8 h, c terminus: native)
VLMCGFPFLLLFLGNFFTTLRVVH [TMEM120A] | 2.95 ± 0.24 | 3.23 ± 0.48 | – | –
CHDKYTKIFNDFKDRMKSDHKRET [ZMYND11] | 4.08 ± 0.28 | 3.9 ± 0.28 | – | –
AKPRATWTLKLDGNLQLDCLAQGW [RTP4] | 2.17 ± 0.24 | 2.33 ± 0.57 | – | –
LTFHRHPVAQSTDGIRGKVGHARG [SPSB4] | 3.99 ± 0.32 | 3.97 ± 0.26 | – | –
SLHVDDRERMELLEEAKKMEMAKF [RIPK4] | 4.92 ± 0.42 | 4.76 ± 0.15 | – | –
PYIPPHAALCLEVTLKTAVDGPDL [FKBP8] | 2.32 ± 0.41 | 2.23 ± 0.2 | – | –
FELALQLAEMKDDSDSEKQQQIHH [VPS39] | 4.76 ± 0.17 | 4.8 ± 0.12 | – | –
YDDVRRCCSSADICPKCWTLMTMA [PRIM1] | 3.34 ± 0.17 | 3.4 ± 0.36 | – | –
MREQYEAMAERNRRDAEEWFHAKS [KRT13] | 4.81 ± 0.28 | 4.75 ± 0.17 | – | –
NSLWKKNKTICKERLQILCFFLLI [NLN] | 2.9 ± 0.4 | 2.4 ± 0.42 | – | –
PIKLELLEPKANLQAALQVLELHH [VPS39] | 2.36 ± 0.41 | 2.41 ± 0.22 | – | –
NVQILLPVGEPVTNVRLQPAATWN [FCHO1] | 2.32 ± 0.22 | 2.44 ± 0.19 | – | –
SQPATPTPLQSRTSIVQAAAGGVP [PDLIM7] | 4.6 ± 0.25 | 4.6 ± 0.19 | – | –
MVGGLKRKHSDLEEEEERWEWSPA [SERTAD3] | 4.23 ± 0.4 | 4.56 ± 0.16 | – | –
VAAALRYLQIFATRRSCIDESQIS [FAM189A2] | 2.37 ± 0.37 | 2.41 ± 0.17 | – | –
LPLSPGVLSSTPDHSFSLELGSEV [ATF4] | 3.72 ± 0.21 | 3.95 ± 0.5 | – | –
KTQSELASESEHIPKPQSTGWFGG [MIA2] | 3.97 ± 0.12 | 4.43 ± 0.096 | – | –
FTSPDYQQQCHEMAERLEDSVLKG [SDE2] | 3.01 ± 0.59 | 3.62 ± 0.7 | – | –
YGYLPEDKVLGTFEFDETSFWNSS [KLHDC2] | 2.66 ± 0.25 | 2.98 ± 0.34 | – | –
SDVVDWLYHNVEGFTDRREARKYA [DVL3] | 3.23 ± 0.31 | 3.53 ± 0.33 | – | –
